T1: IL-2Rα on the surface of KIT225 or F15R-Kit cells (human, UniProt P01589 22-272)
T1 construct: whole, on cells; KIT225 cells also carry some IL-2Rβ and IL-2Rγ; also called IL-2 receptor α subunit; p55
T1 sequence (looked up): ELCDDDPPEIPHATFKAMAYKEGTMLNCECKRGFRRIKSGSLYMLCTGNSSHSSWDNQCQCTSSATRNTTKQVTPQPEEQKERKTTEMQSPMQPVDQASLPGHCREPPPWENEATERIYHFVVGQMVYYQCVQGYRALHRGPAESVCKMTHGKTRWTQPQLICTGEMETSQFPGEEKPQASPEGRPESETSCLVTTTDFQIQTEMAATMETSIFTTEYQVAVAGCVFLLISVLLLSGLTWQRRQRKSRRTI

T2: IL-2Rβ on YT-2C2 cells (human, UniProt P14784 27-551)
T2 construct: whole, on cells; YT-2C2 cells express about 20,000 IL-2Rβγ, so IL-2Rγ is also present; also called p75
T2 sequence (looked up): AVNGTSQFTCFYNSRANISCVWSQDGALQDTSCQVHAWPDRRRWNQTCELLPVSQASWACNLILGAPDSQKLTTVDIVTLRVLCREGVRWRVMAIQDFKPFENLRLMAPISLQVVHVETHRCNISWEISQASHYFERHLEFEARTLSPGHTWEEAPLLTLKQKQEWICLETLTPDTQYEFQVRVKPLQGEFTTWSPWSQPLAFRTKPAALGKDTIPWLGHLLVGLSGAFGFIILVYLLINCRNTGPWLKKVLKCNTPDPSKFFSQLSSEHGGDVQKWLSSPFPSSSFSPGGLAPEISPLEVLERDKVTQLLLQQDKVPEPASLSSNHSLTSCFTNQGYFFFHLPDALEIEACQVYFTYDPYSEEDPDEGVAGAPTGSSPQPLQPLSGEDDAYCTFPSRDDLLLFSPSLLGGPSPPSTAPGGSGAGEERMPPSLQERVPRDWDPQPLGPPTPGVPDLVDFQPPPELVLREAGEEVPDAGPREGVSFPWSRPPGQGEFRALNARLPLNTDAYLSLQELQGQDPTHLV


Columns and labels:
[1] = target: T1, IL-2Rα on the surface of KIT225 or …; experiment: flow cytometry on KIT225 cells, 37 C; the reference value is cited from the literature
[2] = target: T3, IL-15Rα on F15R-Kit cells (UniProt Q13261 31-267); experiment: flow cytometry on F15R-Kit cells
T3 construct: whole, on cells
T3 sequence (Q13261 31-267, stated change not applied): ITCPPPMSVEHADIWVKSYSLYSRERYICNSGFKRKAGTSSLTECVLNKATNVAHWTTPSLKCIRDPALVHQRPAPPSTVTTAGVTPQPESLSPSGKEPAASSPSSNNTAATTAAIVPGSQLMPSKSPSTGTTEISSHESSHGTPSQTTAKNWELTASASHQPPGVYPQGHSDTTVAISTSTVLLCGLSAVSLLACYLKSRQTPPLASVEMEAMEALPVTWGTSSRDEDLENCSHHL

[3] = target: T1, IL-2Rα on the surface of KIT225 or …; experiment: flow cytometry on F15R-Kit cells, 30 min at 37 C, pH 7.4
Method: (pH 7.4). Cell surface bound protein was measured using flow cytometry. Data from two different experiments (FIG. 12) were used to estimate Kd values.

[4] = target: T1, IL-2Rα on the surface of KIT225 or …; experiment: flow cytometry on KIT225 cells, 37 C, anti-FLAG detection
Text: Cells were washed with ice-cold PBS, pH 7.4, containing 0.1% bovine serum albumin (BSA) and labeled with a biotinylated antibody against the FLAG epitope followed by streptavidin-phycoerythrin on ice. We washed the cells again and determined mean single cell fluorescence using an EPICS-XL flow cytometer.

IL-2Rβ on YT-2C2 cells = target: T2, IL-2Rβ on YT-2C2 cells; experiment: flow cytometry on YT-2C2 cells, on ice, anti-FLAG detection, global fit

Binder | fold improvement in binding affinity relative to a wild-type Kd value of 28 nM (literature) [1] | binding result [2] | Kd [3] | Kd [4] | Kd (IL-2Rβ on YT-2C2 cells)
IL-2 mutant M6 (V69A, Q74P, I128T) (ligand, not shown: small tags and cut ends, Soluble form secreted from yeast) APTSSSTKKTQLQLEHLLLDLQMILNGINNYKNPKLTRMLTFKFYMPKKATELKHLQCLEEELKPLEEALNLAPSKNFHLRPRDLISNINVIVLELKGSETTFMCEYADETATIVEFLNRWITFSQSTISTLT | ≥ 30 fold | no binding | 1.22 nM | ~1 nM | 210 nM
IL-2 mutant 1b-8 (ligand, not shown: small tags and cut ends, also called N31618-08_) APTSSSTRKTQLRLEHLLLDLQMILDGINTYKNPRLRRMLTFKFYMPKKATELKHLQCLEEELKPLEEALNLAPSKNFHLRPRDLISNINVTVLELKGSETTFMCEYADETATIVEFLNRWITFSQSIISTLT |  | no binding | 0.409 nM |  | 
IL-2 mutant WE3 (ligand, not shown: small tags and cut ends, also called N31610-25_) APTSSSTKKTQLQLEHLLLDLQMILNGINSYKNPKLTRMLTFKFYMPKKATELKHLQCLEEELKPLEEALNLAPSKNFHLRPRDLISNINVIVLELKGSETTFMCEYADETATIVEFLNRWITFSQSTISTLT |  | no binding | 0.778 nM |  | 
IL-2 mutant WC9 (ligand, not shown: small tags and cut ends, also called N31610-18_) APTPSSTKKARLQLEHLLLDLQMILNGINNYKNPKLTRMLTFKFYMPKKATELKHLQCLEEELKPLEEALNLAPSKNFHLRPRDLISDINVIVLELKGSETTFMCEYADETATIVEFLNRWITFSQSIISTLA |  | no binding | 1.58 nM |  | 

Continued, values first:

fold improvement in binding affinity relative to a wild-type Kd value of 28 nM (literature) [1] | binding result [2] | Kd [3] | Kd [4] | Kd (IL-2Rβ on YT-2C2 cells) | Binder
 | no binding | 0.254 nM |  |  | IL-2 mutant 1a-1 (ligand, not shown: small tags and cut ends, also called N31610-01_) APTSSSTKKTQLQLEHLLLDLQMILNGINSYKNPKLTRMLTFKFYMPKKATELKHLQCLEEELKPLEDALALAPPRNFHLRPRDLISNIHVIVLELKGSETTFMCEYADETATIVEFLNRWITFSQSIISTLT
 | no binding | 0.18 nM |  |  | IL-2 mutant 2-4 (ligand, not shown: small tags and cut ends, also called N31618-14_; N31610-14_) APTSSSTKKTQLQLEHLLLDLQMILNGISNHKNPRLARMLTFKFYMPEKATELKHLQCLEEELKPLEEALRLAPSKNFHLRPRDLISDVNVIVLELKGSETTFMCEYADETATIVEFLNRWITFSQSIISTLT

Reference: patent US20050142106A1 (MIT, published 2005)
